Results reported in patent US20160159924A1 (Novo Nordisk, published 2016).

Target: T1, recombinant human sc-uPA (human, UniProt P00749 21-431)
T1 construct: 411 amino acid single-chain zymogen expressed in HEK293; the 20-residue signal peptide is not present in the mature protein; also called human single-chain uPA; pro-uPA
Assay: SPR, mAb immobilised
Protocol: The binding affinity to recombinant human sc-uPA protein (SEQ ID NO:1) was measured by surface plasmon resonance (SPR).
The experiments were performed on a Biacore™ instrument (GE Healthcare) and analysed with the BIAcore 4000 Evaluation Software. Anti-human uPA mAb variants were directly immobilized at 150-600 RU on flow cells of a CM5 sensor chip (GE Healthcare; cat. # BR-1000-12) via amine coupling, respectively. Recombinant human sc-uPA was diluted in HBS-N (GE Healthcare Cat BR-1006-70) with 1% BSA buffer with a dilution factor 3× ranging 1000-0.13 nM. Recombinant human sc-uPA was injected for 60 s, followed by a 600 s dissociation phase. Binding curves were measured at 25° C. with a flow rate of 30 μL/min. Regeneration of the chip surface was performed with pH1.5 Glycine for 25 s at 30 μl/min. Determination of the kinetic parameters was performed by fitting with a 1:1 binding model. Binding affinities were calculated and are stated in Table 17 below.

Kd [nM]	Binder
2.6	rec0266-0000-0010-VH_D95A (antibody, mouse IgG1, V domains shown) VH: DVKLVESGGGLVKPGGSLKLSCVASGFTFSSYTMSWVRQTPEKRLEWVATISGGGSHIYYADSVKGRFTISRDNAKNTLYLQMSSLKSEDTAIYYCTRAGRDGSWFAYWGQGTLVTVSA VL: DIVMTQSPATLSVTPGDRVSLSCRTSQSIGDYLHWYQQKSHESPRLLIKYVSQSISGIPSRFSGSGSGSDFTLSINSVESEDVGVYYCQNSHSFPLTFGSGTKLELKR
1.4	rec0266-0000-0010-VH_D95I (antibody, mouse IgG1, V domains shown) VH: DVKLVESGGGLVKPGGSLKLSCVASGFTFSSYTMSWVRQTPEKRLEWVATISGGGSHIYYADSVKGRFTISRDNAKNTLYLQMSSLKSEDTAIYYCTRIGRDGSWFAYWGQGTLVTVSA VL: DIVMTQSPATLSVTPGDRVSLSCRTSQSIGDYLHWYQQKSHESPRLLIKYVSQSISGIPSRFSGSGSGSDFTLSINSVESEDVGVYYCQNSHSFPLTFGSGTKLELKR
4	rec0266-0000-0010-VH_D95S (antibody, mouse IgG1, V domains shown) VH: DVKLVESGGGLVKPGGSLKLSCVASGFTFSSYTMSWVRQTPEKRLEWVATISGGGSHIYYADSVKGRFTISRDNAKNTLYLQMSSLKSEDTAIYYCTRSGRDGSWFAYWGQGTLVTVSA VL: DIVMTQSPATLSVTPGDRVSLSCRTSQSIGDYLHWYQQKSHESPRLLIKYVSQSISGIPSRFSGSGSGSDFTLSINSVESEDVGVYYCQNSHSFPLTFGSGTKLELKR
1.5	rec0266-0000-0010-VH_D98F (antibody, mouse IgG1, V domains shown) VH: DVKLVESGGGLVKPGGSLKLSCVASGFTFSSYTMSWVRQTPEKRLEWVATISGGGSHIYYADSVKGRFTISRDNAKNTLYLQMSSLKSEDTAIYYCTRDGRFGSWFAYWGQGTLVTVSA VL: DIVMTQSPATLSVTPGDRVSLSCRTSQSIGDYLHWYQQKSHESPRLLIKYVSQSISGIPSRFSGSGSGSDFTLSINSVESEDVGVYYCQNSHSFPLTFGSGTKLELKR
12	rec0266-0000-0010-VH_D95F (antibody, mouse IgG1, V domains shown) VH: DVKLVESGGGLVKPGGSLKLSCVASGFTFSSYTMSWVRQTPEKRLEWVATISGGGSHIYYADSVKGRFTISRDNAKNTLYLQMSSLKSEDTAIYYCTRFGRDGSWFAYWGQGTLVTVSA VL: DIVMTQSPATLSVTPGDRVSLSCRTSQSIGDYLHWYQQKSHESPRLLIKYVSQSISGIPSRFSGSGSGSDFTLSINSVESEDVGVYYCQNSHSFPLTFGSGTKLELKR
1.7	rec0266-0000-0010-VH_D98H (antibody, mouse IgG1, V domains shown) VH: DVKLVESGGGLVKPGGSLKLSCVASGFTFSSYTMSWVRQTPEKRLEWVATISGGGSHIYYADSVKGRFTISRDNAKNTLYLQMSSLKSEDTAIYYCTRDGRHGSWFAYWGQGTLVTVSA VL: DIVMTQSPATLSVTPGDRVSLSCRTSQSIGDYLHWYQQKSHESPRLLIKYVSQSISGIPSRFSGSGSGSDFTLSINSVESEDVGVYYCQNSHSFPLTFGSGTKLELKR
6.5	rec0266-0000-0010-VH_D95H (antibody, mouse IgG1, V domains shown) VH: DVKLVESGGGLVKPGGSLKLSCVASGFTFSSYTMSWVRQTPEKRLEWVATISGGGSHIYYADSVKGRFTISRDNAKNTLYLQMSSLKSEDTAIYYCTRHGRDGSWFAYWGQGTLVTVSA VL: DIVMTQSPATLSVTPGDRVSLSCRTSQSIGDYLHWYQQKSHESPRLLIKYVSQSISGIPSRFSGSGSGSDFTLSINSVESEDVGVYYCQNSHSFPLTFGSGTKLELKR
2.7	rec0266-0000-0010-VH_D95P (antibody, mouse IgG1, V domains shown) VH: DVKLVESGGGLVKPGGSLKLSCVASGFTFSSYTMSWVRQTPEKRLEWVATISGGGSHIYYADSVKGRFTISRDNAKNTLYLQMSSLKSEDTAIYYCTRPGRDGSWFAYWGQGTLVTVSA VL: DIVMTQSPATLSVTPGDRVSLSCRTSQSIGDYLHWYQQKSHESPRLLIKYVSQSISGIPSRFSGSGSGSDFTLSINSVESEDVGVYYCQNSHSFPLTFGSGTKLELKR
2	rec0266-0000-0010-VH_D98I (antibody, mouse IgG1, V domains shown) VH: DVKLVESGGGLVKPGGSLKLSCVASGFTFSSYTMSWVRQTPEKRLEWVATISGGGSHIYYADSVKGRFTISRDNAKNTLYLQMSSLKSEDTAIYYCTRDGRIGSWFAYWGQGTLVTVSA VL: DIVMTQSPATLSVTPGDRVSLSCRTSQSIGDYLHWYQQKSHESPRLLIKYVSQSISGIPSRFSGSGSGSDFTLSINSVESEDVGVYYCQNSHSFPLTFGSGTKLELKR
4.7	rec0266-0000-0010-VH_D95L (antibody, mouse IgG1, V domains shown) VH: DVKLVESGGGLVKPGGSLKLSCVASGFTFSSYTMSWVRQTPEKRLEWVATISGGGSHIYYADSVKGRFTISRDNAKNTLYLQMSSLKSEDTAIYYCTRLGRDGSWFAYWGQGTLVTVSA VL: DIVMTQSPATLSVTPGDRVSLSCRTSQSIGDYLHWYQQKSHESPRLLIKYVSQSISGIPSRFSGSGSGSDFTLSINSVESEDVGVYYCQNSHSFPLTFGSGTKLELKR
4.9	rec0266-0000-0010-VH_D98E (antibody, mouse IgG1, V domains shown) VH: DVKLVESGGGLVKPGGSLKLSCVASGFTFSSYTMSWVRQTPEKRLEWVATISGGGSHIYYADSVKGRFTISRDNAKNTLYLQMSSLKSEDTAIYYCTRDGREGSWFAYWGQGTLVTVSA VL: DIVMTQSPATLSVTPGDRVSLSCRTSQSIGDYLHWYQQKSHESPRLLIKYVSQSISGIPSRFSGSGSGSDFTLSINSVESEDVGVYYCQNSHSFPLTFGSGTKLELKR
1.3	rec0266-0000-0010-VH_D95R (antibody, mouse IgG1, V domains shown) VH: DVKLVESGGGLVKPGGSLKLSCVASGFTFSSYTMSWVRQTPEKRLEWVATISGGGSHIYYADSVKGRFTISRDNAKNTLYLQMSSLKSEDTAIYYCTRRGRDGSWFAYWGQGTLVTVSA VL: DIVMTQSPATLSVTPGDRVSLSCRTSQSIGDYLHWYQQKSHESPRLLIKYVSQSISGIPSRFSGSGSGSDFTLSINSVESEDVGVYYCQNSHSFPLTFGSGTKLELKR
5	rec0266-0000-0010-VH_D95Y (antibody, mouse IgG1, V domains shown) VH: DVKLVESGGGLVKPGGSLKLSCVASGFTFSSYTMSWVRQTPEKRLEWVATISGGGSHIYYADSVKGRFTISRDNAKNTLYLQMSSLKSEDTAIYYCTRYGRDGSWFAYWGQGTLVTVSA VL: DIVMTQSPATLSVTPGDRVSLSCRTSQSIGDYLHWYQQKSHESPRLLIKYVSQSISGIPSRFSGSGSGSDFTLSINSVESEDVGVYYCQNSHSFPLTFGSGTKLELKR
0.95	rec0266-0000-0010-VH_D98A (antibody, mouse IgG1, V domains shown) VH: DVKLVESGGGLVKPGGSLKLSCVASGFTFSSYTMSWVRQTPEKRLEWVATISGGGSHIYYADSVKGRFTISRDNAKNTLYLQMSSLKSEDTAIYYCTRDGRAGSWFAYWGQGTLVTVSA VL: DIVMTQSPATLSVTPGDRVSLSCRTSQSIGDYLHWYQQKSHESPRLLIKYVSQSISGIPSRFSGSGSGSDFTLSINSVESEDVGVYYCQNSHSFPLTFGSGTKLELKR
12	rec0266-0000-0010-VH_D95G (antibody, mouse IgG1, V domains shown) VH: DVKLVESGGGLVKPGGSLKLSCVASGFTFSSYTMSWVRQTPEKRLEWVATISGGGSHIYYADSVKGRFTISRDNAKNTLYLQMSSLKSEDTAIYYCTRGGRDGSWFAYWGQGTLVTVSA VL: DIVMTQSPATLSVTPGDRVSLSCRTSQSIGDYLHWYQQKSHESPRLLIKYVSQSISGIPSRFSGSGSGSDFTLSINSVESEDVGVYYCQNSHSFPLTFGSGTKLELKR
2.4	rec0266-0000-0010-VH_D98G (antibody, mouse IgG1, V domains shown) VH: DVKLVESGGGLVKPGGSLKLSCVASGFTFSSYTMSWVRQTPEKRLEWVATISGGGSHIYYADSVKGRFTISRDNAKNTLYLQMSSLKSEDTAIYYCTRDGRGGSWFAYWGQGTLVTVSA VL: DIVMTQSPATLSVTPGDRVSLSCRTSQSIGDYLHWYQQKSHESPRLLIKYVSQSISGIPSRFSGSGSGSDFTLSINSVESEDVGVYYCQNSHSFPLTFGSGTKLELKR
1.5	rec0266-0000-0010-VH_D95T (antibody, mouse IgG1, V domains shown) VH: DVKLVESGGGLVKPGGSLKLSCVASGFTFSSYTMSWVRQTPEKRLEWVATISGGGSHIYYADSVKGRFTISRDNAKNTLYLQMSSLKSEDTAIYYCTRTGRDGSWFAYWGQGTLVTVSA VL: DIVMTQSPATLSVTPGDRVSLSCRTSQSIGDYLHWYQQKSHESPRLLIKYVSQSISGIPSRFSGSGSGSDFTLSINSVESEDVGVYYCQNSHSFPLTFGSGTKLELKR
2	rec0266-0000-0010-VH_D95E (antibody, mouse IgG1, V domains shown) VH: DVKLVESGGGLVKPGGSLKLSCVASGFTFSSYTMSWVRQTPEKRLEWVATISGGGSHIYYADSVKGRFTISRDNAKNTLYLQMSSLKSEDTAIYYCTREGRDGSWFAYWGQGTLVTVSA VL: DIVMTQSPATLSVTPGDRVSLSCRTSQSIGDYLHWYQQKSHESPRLLIKYVSQSISGIPSRFSGSGSGSDFTLSINSVESEDVGVYYCQNSHSFPLTFGSGTKLELKR
12	rec0266-0000-0010-VH_D95K (antibody, mouse IgG1, V domains shown) VH: DVKLVESGGGLVKPGGSLKLSCVASGFTFSSYTMSWVRQTPEKRLEWVATISGGGSHIYYADSVKGRFTISRDNAKNTLYLQMSSLKSEDTAIYYCTRKGRDGSWFAYWGQGTLVTVSA VL: DIVMTQSPATLSVTPGDRVSLSCRTSQSIGDYLHWYQQKSHESPRLLIKYVSQSISGIPSRFSGSGSGSDFTLSINSVESEDVGVYYCQNSHSFPLTFGSGTKLELKR
0.8	rec0266-0000-0010-VH_D95V (antibody, mouse IgG1, V domains shown) VH: DVKLVESGGGLVKPGGSLKLSCVASGFTFSSYTMSWVRQTPEKRLEWVATISGGGSHIYYADSVKGRFTISRDNAKNTLYLQMSSLKSEDTAIYYCTRVGRDGSWFAYWGQGTLVTVSA VL: DIVMTQSPATLSVTPGDRVSLSCRTSQSIGDYLHWYQQKSHESPRLLIKYVSQSISGIPSRFSGSGSGSDFTLSINSVESEDVGVYYCQNSHSFPLTFGSGTKLELKR
